Assay results as given in the supplement of paper PMC6755084.

B1: minF1; the commonest letter at each place (parent)
chain: GAGACCGCAACTGAAAAGTTGTTATCAGAAATGGATGGGTTGAATTTCTGCACGTAGAAGCAAAAGGC
B2: minF1; a variant is named by its letters at N, in order (parent)
chain: GAGACCGCAACTGAAAAGTTGTTATCAGAAATGNNNGGNTNNNTTTCTGCACGTAGAAGCAAAAGGC

Variants of: B1
Assay: fraction ligated after 30 min (ligated reads / total reads); higher = more ligase activity
Settings: with F1*subA RNA substrate (template-directed ligation), 42 °C
Method in brief: (§1)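 Minimized ligase ribozyme variants came from oligo-pool templates that were PCR-amplified, T7-transcribed and gel-purified. Their ligated and unligated RNAs were separated on gels before barcoded reverse transcription and MiSeq sequencing, with core bases kept only at quality ≥30. The fraction ligated for each variant is its ligated reads as a proportion of all its reads.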

Variant	fraction ligated
A35T A43T	0.00405
A35T A44C	0.00563
A35T A44G	0.0054
A35T A44T	0.00912
A35T G37A	0.00299
A35T G37C	0.00461
A35T G37T	0.00238
A35T G42A	0.00343
A35T G42C	0.00256
A35T G42T	0.00285
A35T T36A	0.0108
A35T T36C	0.00257
A35T T36G	0.00748
T36A	0.0309
T36A A43C	0.0049
T36A A43G	0.00353
T36A A43T	0.00522
T36A A44C	0.00684
T36A A44G	0.00875
T36A A44T	0.012
T36A G37A	0.00486
T36A G37C	0.00357
T36A G37T	0.0153
T36A G42A	0.00342
T36A G42C	0.0064

Variant	fraction ligated
T36A G42T	0.00416
T36C	0.0157
T36C A43C	0.00423
T36C A43G	0.00496
T36C A43T	0.00367
T36C A44C	0.00404
T36C A44G	0.00651
T36C A44T	0.0101
T36C G37A	0.00566
T36C G37C	0.0038
T36C G37T	0.00876
T36C G42A	0.00494
T36C G42C	0.00306
T36C G42T	0.00209
T36G	0.0461
T36G A43C	0.00461
T36G A43G	0.00457
T36G A43T	0.00809
T36G A44C	0.00345
T36G A44G	0.00979
T36G A44T	0.0156
T36G G37A	0.00776
T36G G37C	0.0044
T36G G37T	0.00976
T36G G42A	0.00463

Variant	fraction ligated
T36G G42C	0.00216
T36G G42T	0.000662
G37A	0.00659
G37A A43C	0.00236
G37A A43G	0.00388
G37A A43T	0.00461
G37A A44C	0.00309
G37A A44G	0.00429
G37A A44T	0.00574
G37A G42A	0.00332
G37A G42C	0.00225
G37A G42T	0.00089
G37C	0.00417
G37C A43C	0.00193
G37C A43G	0.00302
G37C A43T	0.00493
G37C A44C	0.00161
G37C A44G	0.00293
G37C A44T	0.00681
G37C G42A	0.00281
G37C G42C	0.00331
G37C G42T	0.00137
G37T	0.0174
G37T A43C	0.00313
G37T A43G	0.00602

Variant	fraction ligated
G37T A43T	0.00731
G37T A44C	0.00343
G37T A44G	0.0087
G37T A44T	0.0093
G37T G42A	0.00778
G37T G42C	0.00492
G37T G42T	0.00146
T41A	0.689
T41C	0.86
T41G	0.146
G42A	0.364
G42A A43C	0.0101
G42A A43C A44C	0.00102
G42A A43C A44G	0.00203
G42A A43C A44T	0.00211
G42A A43G	0.0596
G42A A43G A44C	0.00251
G42A A43G A44G	0.00352
G42A A43G A44T	0.00363
G42A A43T	0.00678
G42A A43T A44C	0.00312
G42A A43T A44G	0.000353
G42A A43T A44T	0.00133
G42A A44C	0.024
G42A A44G	0.0717

Variant	fraction ligated
G42A A44T	0.0746
G42C	0.0127
G42C A43C	0.00394
G42C A43C A44C	0.00224
G42C A43C A44G	0.00342
G42C A43C A44T	0.00191
G42C A43G	0.0762
G42C A43G A44C	0.000834
G42C A43G A44G	0.00392
G42C A43G A44T	0.00288
G42C A43T	0.00312
G42C A43T A44C	0.000795
G42C A43T A44G	0.0022
G42C A43T A44T	0.00299
G42C A44C	0.00284
G42C A44G	0.00439
G42C A44T	0.00542
G42T	0.117
G42T A43C	0.000975
G42T A43C A44C	0.00131
G42T A43C A44G	0.00164
G42T A43C A44T	0.0038
G42T A43G	0.115
G42T A43G A44C	0.00145
G42T A43G A44G	0.00264

Variant	fraction ligated
G42T A43G A44T	0.00254
G42T A43T	0.00326
G42T A43T A44C	0.00206
G42T A43T A44G	0.000847
G42T A43T A44T	0.00186
G42T A44C	0.00596
G42T A44G	0.0143
G42T A44T	0.0246
A43C	0.115
A43C A44C	0.00194
A43C A44G	0.00638
A43C A44T	0.00456
A43G	0.0856
A43G A44C	0.00393
A43G A44G	0.00367
A43G A44T	0.00618
A43T	0.13
A43T A44C	0.00191
A43T A44G	0.00469
A43T A44T	0.00531
A44C	0.646
A44G	0.79
A44T	0.794
unchanged	0.761

Variants of: B2
Assay: as above
Settings: with F1*subA RNA substrate (template-directed ligation), 42 °C
Method in brief: as §1

Variant	fraction ligated
GAGTGAA	0.00382
GATGTAA	0.175
GATGTAC	0.00239
GATGTAG	0.00461
GATGTAT	0.00414
GATGTCA	0.0146
GATGTCC	0.00223
GATGTCG	0.00256
GATGTCT	0.00139
GATGTGA	0.844
GATGTGC	0.00735
GATGTGG	0.00509
GATGTGT	0.00586
GATGTTA	0.0473
GATGTTC	0.00331
GATGTTG	0.00218
GATGTTT	0.000955
GATTGAA	0.023
